Publication PMC8811898, “Structural Insights into Methylated DNA Recognition by the Methyl-CpG Binding Domain of MBD6 from Arabidopsis thaliana”
Changes are numbered by the printed parent chain.

Assays:
AtMBD6 MBD domain WT = target: T1, AtMBD6 MBD domain WT (Arabidopsis thaliana, UniProt Q9LTJ1 78-140); assay: NMR titration (1H-15N HSQC); 20 mM Na phosphate pH 6.5, 150 mM NaCl, 20 C; two-state fit; NMR: 20 mM Na phosphate pH 6.5, 150 mM NaCl, 5% D2O, 20 C; EMSA: 25 mM Tris, 25 mM boric acid, 150 mM NaCl, 5% glycerol, 1 mM DTT, 4 C, 30 min; details: protein: recombinant; tags: GST removed by HRV3C; N-terminal GPLGS remains; blunt; self-complementary
T1 sequence: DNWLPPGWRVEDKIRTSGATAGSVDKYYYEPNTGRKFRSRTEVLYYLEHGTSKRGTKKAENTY

AtMBD6 MBD domain S100R = target: T2, AtMBD6 MBD domain S100R (Arabidopsis thaliana, UniProt Q9LTJ1 78-140, S100R); assay: NMR titration (1H-15N HSQC); slow exchange, increased affinity vs WT; no reliable Kd from NMR, ITC or FP; NMR: 20 mM Na phosphate pH 6.5, 150 mM NaCl, 5% D2O, 20 C; EMSA: 25 mM Tris, 25 mM boric acid, 150 mM NaCl, 5% glycerol, 1 mM DTT, 4 C, 30 min; details: protein: recombinant; tags: GST removed by HRV3C; N-terminal GPLGS remains; blunt; self-complementary
T2 sequence: T1 sequence with S23R

B1: MG (dsDNA)
DNA 1: GGTATGCGCATACC
DNA 2: GGTATGCGCATACC
modifications: 5-methylcytosine at position 7 of both strands (symmetric methyl-CpG)
Kd (AtMBD6 MBD domain WT): 40.2 ± 0.5 µM
binding result (AtMBD6 MBD domain S100R): binds
